# Results taken from publication doi:10.1101/093708 (bioRxiv, 2016).
# Biological target: the molecule itself
# Assay: cryo-EM structure; EcFtsZ 0.5 mg/mL in 50 mM HEPES-KOH, 100 mM potassium acetate, 5 mM magnesium acetate, pH 7.7, 20 °C, 0.1 mM GMPCPP; helical reconstruction of filaments in RELION
protein,measurement,value
"Escherichia coli FtsZ, full length, untagged, wildtype (natural protein, E. coli, UniProt P0A9A6 1-383, looked up, also called EcFtsZ; E. coli FtsZ; source: E. coli C41 (DE3), purified (GTP and calcium-induced precipitation, Mono Q)) MFEPMELTNDAVIKVIGVGGGGGNAVEHMVRERIEGVEFFAVNTDAQALRKTAVGQTIQIGSGITKGLGAGANPEVGRNAADEDRDALRAALEGADMVFIAAGMGGGTGTGAAPVVAEVAKDLGILTVAVVTKPFNFEGKKRMAFAEQGITELSKHVDSLITIPNDKLLKVLGRGISLLDAFGAANDVLKGAVQGIAELITRPGLMNVDFADVRTVMSEMGYAMMGSGVASGEDRAEEAAEMAISSPLLEDIDLSGARGVLVNITAGFDLRLDEFETVGNTIRAFASDNATVVIGTSLDPDMNDELRVTVVATGIGMDKRPEITLVTNKQVQQPVMDRYQQHGMAPLTQEQKPVAKVVNDNAPQTAKEPDYLDIPAFLRKQAD",binding result,binds
